In patent publication US20240376163:

T1: GST-tagged VIVIT peptide (VIVIT 10-mer)
T1 chain: PVIVITGPHE

T2: GST-tagged CABIN1-L-1-2
T2 chain: PEITVTPPTP

T3: GST-tagged VIVIT PPTP
T3 chain: PVIVITPPTP


Columns and labels:
[1] = target: T1, GST-tagged VIVIT peptide (VIVIT 10-mer)
[2] = target: T2, GST-tagged CABIN1-L-1-2
[3] = target: T3, GST-tagged VIVIT PPTP

Row | Protein | in vitro kinase assay (32P incorporation) [1] | in vitro kinase assay (32P incorporation) [2] | in vitro kinase assay (32P incorporation) [3]
1 | JNK1 (activated recombinant kinase) (protein) MSRSKRDNNFYSVEIGDSTFTVLKRYQNLKPIGSGAQGIVCAAYDAILERNVAIKKLSRPFQNQTHAKRAYRELVLMKCVNHKNIIGLLNVFTPQKSLEEFQDVYIVMELMDANLCQVIQMELDHERMSYLLYQMLCGIKHLHSAGIIHRDLKPSNIVVKSDCTLKILDFGLARTAGTSFMMTPYVVTRYYRAPEVILGMGYKENVDLWSVGCIMGEMVCHKILFPGRDYIDQWNKVIEQLGTPCPEFMKKLQPTVRTYVENRPKYAGYSFEKLFPDVLFPADSEHNKLKASQARDLLSKMLVIDASKRISVDEALQHPYINVWYDPSEAEAPPPKIPDKQLDEREHTIEEWKELIYKEVMDLEERTKNGVIRGQPSPLAQVQQ | but not GST-tagged VIVIT peptide | ERK2, JNK1, and p38a phosphorylate purified recombinant GST-tagged peptide containing PPTP sequence (CABIN1-L-1-2 and VIVIT PPTP), but not GST-tagged VIVIT peptide | ERK2, JNK1, and p38a phosphorylate purified recombinant GST-tagged peptide containing PPTP sequence (CABIN1-L-1-2 and VIVIT PPTP), but not GST-tagged VIVIT peptide
2 | MKK4 (activated recombinant kinase) (protein) MAAPSPSGGGGSGGGSGSGTPGPVGSPAPGHPAVSSMQGKRKALKLNFANPPFKSTARFTLNPNPTGVQNPHIERLRTHSIESSGKLKISPEQHWDFTAEDLKDLGEIGRGAYGSVNKMVHKPSGQIMAVKRIRSTVDEKEQKQLLMDLDVVMRSSDCPYIVQFYGALFREGDCWICMELMSTSFDKFYKYVYSVLDDVIPEEILGKITLATVKALNHLKENLKIIHRDIKPSNILLDRSGNIKLCDFGISGQLVDSIAKTRDAGCRPYMAPERIDPSASRQGYDVRSDVWSLGITLYELATGRFPYPKWNSVFDQLTQVVKGDPPQLSNSEEREFSPSFINFVNLCLTKDESKRPKYKELLKHPFILMYEERAVEVACYVCKILDQMPATPSSPMYVD | – | the MAPK family (EKR, JNK, and p38) and MKK4 directly phosphorylate CABIN1 peptide | –
